FireProtDB (doi:10.1093/protein/14.12.967)
Several values for one entry are separate records, joined by “and”; a condition that tells them apart may be missing. Equal entries are not always repeated.

Details: Canis lupus familiaris, Thermal, DSC, reversible: yes, whole UniProt chain shown
[1] = pH 1.95, glycine hydrochloride 50 mM, transition: 3
[2] = pH 4.5, 66.4 °C, sodium acetate 50 mM

B1: Lysozyme C, milk isozyme wild type, P81708 (protein)
chain: KIFSKCELARKLKSMGMDGFHGYSLANWVCMAEYESNFNTQAFNGRNSNGSSDYGIFQLNSKWWCKSNSHSSANACNIMCSKFLDDNIDDDIACAKRVVKDPNGMSAWVAWVKHCKGKDLSKYLASCNL
Tm [1]: 60 °C
unfolding enthalpy (calorimetric) [1]: 124 kJ/mol
unfolding enthalpy (calorimetric) (pH 2.74, glycine hydrochloride 50 mM, transition: 3): 89.3 kJ/mol and 158 kJ/mol
unfolding enthalpy (calorimetric) (pH 3, glycine hydrochloride 50 mM, transition: 3): 133 kJ/mol and 154 kJ/mol
unfolding enthalpy (calorimetric) (pH 3.24, glycine hydrochloride 50 mM, transition: 3): 149 kJ/mol and 180 kJ/mol
unfolding enthalpy (calorimetric) (pH 3.46, glycine hydrochloride 50 mM, transition: 3): 158 kJ/mol and 176 kJ/mol
unfolding enthalpy (calorimetric) [2]: 129 kJ/mol
unfolding free energy [2]: 9 kJ/mol
unfolding enthalpy (calorimetric) (pH 4.5, sodium acetate 50 mM, CaCl2 10 mM, transition: 3): 282 kJ/mol and 186 kJ/mol
unfolding enthalpy (calorimetric) (pH 4.5, sodium acetate 50 mM, transition: 3): 176 kJ/mol and 186 kJ/mol
